Consider 72 sequences from the supplement of paper PMC6755084.

This data set relates to F1*sub RNA substrate (template-directed ligation). Put plainly: fraction ligated after 30 min (ligated reads / total reads); higher = more ligase activity; sequences stand for … in GAGACCGCAACTGAAAAGTTGT…AGTTCTGCACGTAGAAGCAAAAGGC
To be noted: 42 °C. Summed up: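 Ligase ribozyme variants were made from oligo-pool templates by PCR amplification, T7 transcription and gel purification. After gel separation, ligated and unligated bands were reverse transcribed with barcoded primers and sequenced on a MiSeq, with core bases filtered at quality ≥20. The fraction ligated for each variant was the number of ligated reads divided by total reads.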
“TATCACTTGTCTAAACACTTGGATGGGTTGA [3d1839]”: the fraction ligated came to 0.776.
Take “TATCACTTGTCTAAACACTTTGATGGGTTGA [3d1840]”: the fraction ligated turned out to be 0.753.
Sequence “TATCACTTGTCTAAACACTTTGGAGGGTTGA [3d1842]” gave a fraction ligated of 0.133.
The value for “TATCACTTGTCTAAACACTTTGGATGGGTTA [3d1844]” was 0.758.
Sequence “TATCACTTGTCTAAACACTTTGGATGGGTTG [3d1845]” yielded a fraction ligated of 0.792.
For the sequence “TATCACTTGTCTAAACACTTTGGATGGTTGA [3d1843]”, the fraction ligated came to 0.288.
The value for “TATCACTTGTCTAAACACTTTGGTGGGTTGA [3d1841]” was 0.116; that for “TATCACTTGTCTAAACATTTGGATGGGTTGA [3d1838]” was 0.841; that for “TATCACTTGTCTAAACCTTTGGATGGGTTGA [3d1837]” was 0.789.
The sequence “TATCACTTGTCTAACACTTTGGATGGGTTGA [3d1824]” showed a fraction ligated of 0.8.
The sequence “TATCACTTGTCTAAGAACTTGGATGGGTTGA [3d1857]” had a fraction ligated of 0.771.
Then “TATCACTTGTCTAAGAACTTTGATGGGTTGA [3d1858]”, with 0.777; and “TATCACTTGTCTAAGAACTTTGGAGGGTTGA [3d1860]”, with 0.108; and “TATCACTTGTCTAAGAACTTTGGATGGGTTA [3d1862]”, with 0.735.
For the sequence “TATCACTTGTCTAAGAACTTTGGATGGGTTG [3d1863]”, the fraction ligated stood at 0.782.
“TATCACTTGTCTAAGAACTTTGGATGGTTGA [3d1861]” registered a fraction ligated of 0.166.
Take “TATCACTTGTCTAAGAACTTTGGTGGGTTGA [3d1859]”: the fraction ligated turned out to be 0.162.
Then “TATCACTTGTCTAAGAATTTGGATGGGTTGA [3d1856]”, with 0.794.
Then “TATCACTTGTCTAAGACACTGGATGGGTTGA [3d1878]”, with 0.787; and “TATCACTTGTCTAAGACACTTGATGGGTTGA [3d1879]”, with 0.708; and “TATCACTTGTCTAAGACACTTGGAGGGTTGA [3d1881]”, with 0.0594.
Then “TATCACTTGTCTAAGACACTTGGATGGGTTA [3d1883]”, with 0.701; and “TATCACTTGTCTAAGACACTTGGATGGGTTG [3d1884]”, with 0.781; and “TATCACTTGTCTAAGACACTTGGATGGTTGA [3d1882]”, with 0.12.
Consider “TATCACTTGTCTAAGACACTTGGTGGGTTGA [3d1880]”, for which the fraction ligated is 0.113.
The value for “TATCACTTGTCTAAGACACTTTATGGGTTGA [3d1885]” was 0.171; that for “TATCACTTGTCTAAGACACTTTGAGGGTTGA [3d1887]” was 0.0527; that for “TATCACTTGTCTAAGACACTTTGATGGGTTA [3d1889]” was 0.162.
“TATCACTTGTCTAAGACACTTTGATGGGTTG [3d1890]” came in with a fraction ligated of 0.751.
In the case of “TATCACTTGTCTAAGACACTTTGATGGTTGA [3d1888]”, the fraction ligated was 0.0589.
Take “TATCACTTGTCTAAGACACTTTGGAGGGTTA [3d1896]”: the fraction ligated was 0.134.
The sequence “TATCACTTGTCTAAGACACTTTGGAGGGTTG [3d1897]” gave a fraction ligated of 0.0676.
Sequence “TATCACTTGTCTAAGACACTTTGGAGGTTGA [3d1895]” had a fraction ligated of 0.095.
The sequence “TATCACTTGTCTAAGACACTTTGGATGGGTT [3d1900]” returned a fraction ligated of 0.747.
The sequence “TATCACTTGTCTAAGACACTTTGGATGGGTTA [2d206]” yielded a fraction ligated of 0.803.
In turn, “TATCACTTGTCTAAGACACTTTGGATGGGTTG [2d207]” returned a fraction ligated of 0.825.
With “TATCACTTGTCTAAGACACTTTGGATGGGTTGA [1d11]”, the fraction ligated was found to be 0.818.
The value for “TATCACTTGTCTAAGACACTTTGGATGGTTA [3d1898]” was 0.372; that for “TATCACTTGTCTAAGACACTTTGGATGGTTG [3d1899]” was 0.408; that for “TATCACTTGTCTAAGACACTTTGGATGGTTGA [2d205]” was 0.588.
Turning to “TATCACTTGTCTAAGACACTTTGGGGGTTGA [3d1891]”, the fraction ligated turned out to be 0.118.
“TATCACTTGTCTAAGACACTTTGGTGGGTTA [3d1893]” registered a fraction ligated of 0.104.
“TATCACTTGTCTAAGACACTTTGGTGGGTTG [3d1894]” displayed a fraction ligated of 0.0778.
In turn, “TATCACTTGTCTAAGACACTTTGGTGGTTGA [3d1892]” registered a fraction ligated of 0.104.
The sequence “TATCACTTGTCTAAGACACTTTGTGGGTTGA [3d1886]” gave a fraction ligated of 0.044.
Consider “TATCACTTGTCTAAGACATTGGATGGGTTGA [3d1871]”, for which the fraction ligated was found to be 0.796.
The sequence “TATCACTTGTCTAAGACATTTGATGGGTTGA [3d1872]” displayed a fraction ligated of 0.345.
The sequence “TATCACTTGTCTAAGACATTTGGAGGGTTGA [3d1874]” displayed a fraction ligated of 0.0252.
The value for “TATCACTTGTCTAAGACATTTGGATGGGTTA [3d1876]” was 0.793; that for “TATCACTTGTCTAAGACATTTGGATGGGTTG [3d1877]” was 0.824; that for “TATCACTTGTCTAAGACATTTGGATGGTTGA [3d1875]” was 0.137.
The value for “TATCACTTGTCTAAGACATTTGGTGGGTTGA [3d1873]” was 0.0508; that for “TATCACTTGTCTAAGACCTTGGATGGGTTGA [3d1864]” was 0.762.
Sequence “TATCACTTGTCTAAGACCTTTGATGGGTTGA [3d1865]” came in with a fraction ligated of 0.732.
Regarding “TATCACTTGTCTAAGACCTTTGGAGGGTTGA [3d1867]”, the fraction ligated came to 0.202.
Sequence “TATCACTTGTCTAAGACCTTTGGATGGGTTA [3d1869]” displayed a fraction ligated of 0.732.
The value for “TATCACTTGTCTAAGACCTTTGGATGGGTTG [3d1870]” was 0.755; that for “TATCACTTGTCTAAGACCTTTGGATGGTTGA [3d1868]” was 0.269; that for “TATCACTTGTCTAAGACCTTTGGTGGGTTGA [3d1866]” was 0.227.
In turn, “TATCACTTGTCTAAGACTTTGGATGGGTTGA [3d1846]” had a fraction ligated of 0.786.
“TATCACTTGTCTAAGCACTTGGATGGGTTGA [3d1849]” gave a fraction ligated of 0.766.
The sequence “TATCACTTGTCTAAGCACTTTGATGGGTTGA [3d1850]” showed a fraction ligated of 0.724.
With “TATCACTTGTCTAAGCACTTTGGAGGGTTGA [3d1852]”, the fraction ligated is 0.128.
“TATCACTTGTCTAAGCACTTTGGATGGGTTA [3d1854]” registered a fraction ligated of 0.712.
The sequence “TATCACTTGTCTAAGCACTTTGGATGGGTTG [3d1855]” yielded a fraction ligated of 0.75.
Consider “TATCACTTGTCTAAGCACTTTGGATGGTTGA [3d1853]”, for which the fraction ligated stood at 0.165.
“TATCACTTGTCTAAGCACTTTGGTGGGTTGA [3d1851]” returned a fraction ligated of 0.108.
On to “TATCACTTGTCTAAGCATTTGGATGGGTTGA [3d1848]”, for which the fraction ligated was found to be 0.818.
In the case of “TATCACTTGTCTAAGCCTTTGGATGGGTTGA [3d1847]”, the fraction ligated amounted to 0.776.
On to “TATCACTTGTCTAGAACTTTGGATGGGTTGA [3d1826]”, for which the fraction ligated was 0.796.
Then “TATCACTTGTCTAGACACTTGGATGGGTTGA [3d1829]”, with 0.796.
In the case of “TATCACTTGTCTAGACACTTTGATGGGTTGA [3d1830]”, the fraction ligated is 0.739.
